# Publication PMC7145681 (Nucleic Acids Research, 2019)
# Numbering of substitutions follows the chain as printed. Numbers in names are those of the source. Read-outs that look alike come from different tables or passages of the source.
# B1: SP_0782 (7–79) W30A mutant (domain or fragment, Streptococcus pneumoniae, UniProt A0A0H2UPA7 7-79, looked up)
# chain: KKMAEFTFEIEEHLLTLSENEKGATKEINRVSFNGAPAKFDIRAWSPDHTKMGKGITLSNEEFQTMVDAFKGN
# B2: SP_0782 (7–79) wild-type from Streptococcus pneumoniae (domain or fragment, UniProt A0A0H2UPA7 7-79, looked up)
# chain: B1 chain with A24W
# What was measured:
# SP_0782 [1] = target: T1, SP_0782 (Streptococcus pneumoniae, UniProt A0A0H2UPA7 7-79); assay: ITC
# SEC-MALS = target: the molecule itself; assay: SEC-MALS
# SP_0782 [2] = target: T1, SP_0782; assay: ITC; remark: listed apart in the source
# SP_0782 [3] = target: T1, SP_0782; assay: X-ray crystallography
binder,measurement,setting,value
TTTTTT (ssDNA) [dT6],Kd,SP_0782 [1],26.8 µM
B1,stoichiometry N,SEC-MALS,2
B2,stoichiometry N,SEC-MALS,2
TTTTTTTTTTTT (ssDNA) [dT12],Kd,SP_0782 [2],0.0206 µM
TCTTCC (ssDNA) [dTCTTCC],binding result,SP_0782 [3],binds
